Experimental data from patent publication US20250074996A1.

Target: CD3E on the surface of Jurkat-NFAT-Luc cells (UniProt P07766)
Test: cell-based or functional assay

Sequence of CD3E on the surface of Jurkat-NFAT-Luc cells (P07766 23-207): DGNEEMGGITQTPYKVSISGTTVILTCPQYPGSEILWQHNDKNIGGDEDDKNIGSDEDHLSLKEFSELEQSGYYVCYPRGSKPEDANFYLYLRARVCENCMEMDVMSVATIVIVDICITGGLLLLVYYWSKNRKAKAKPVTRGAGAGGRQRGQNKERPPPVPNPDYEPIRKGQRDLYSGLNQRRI

- EC50 of Jurkat-NFAT-Luc luciferase activation; tumor cells 8226: 5.39 pM
- EC50 of Jurkat-NFAT-Luc luciferase activation; tumor cells ARD: 2.04 pM
- EC50 of Jurkat-NFAT-Luc luciferase activation; tumor cells H929: 2.72 pM
- EC50 of Jurkat-NFAT-Luc luciferase activation; tumor cells L363: 2.79 pM
- EC50 of Jurkat-NFAT-Luc luciferase activation; tumor cells MM.1S: 1.98 pM
- EC50 of Jurkat-NFAT-Luc luciferase activation; tumor cells U266: 4.09 pM
B1: hz11B7.5/SP34.24 (bispecific antibody, V domains shown)
VH 1: QVQLVQSGAEVKKPGSSVKVSCKASGYTFTTYTMHWVRQAPGQGLEWIGFIIPSSGYTSYNQNFKDKVTLTADKSTSTAYMELSSLRSEDTAVYFCTGGQARAYYPLDYWGQGTLVTVSS
VL 1: EIVMTQSPATLSVSPGERATLSCRASQSIGTTIHWYQQKPGQAPRLLIKYASESISGIPSRFSGSGSGTEFTLTISSLQSEDFAVYYCQQSYNWPRTFGGGTKVEIK
VH 2: EVQLVESGGGLVQPGGSLKLSCAASGFTFNTYAMNWVRQASGKGLEWVGRIRSKYNNYATYYADSVKDRFTISRDDSKSTLYLQMNSLKTEDTAVYYCARHGNFGQSYVSWFAYWGQGTTVTVSS
VL 2: QAVVTQEPSLTVSPGGTVTLTCRSSTGAVTTSNYANWVQQKPGQAPRGLIGGTNKRAPGVPARFSGSLLGDKAALTLLGAQPEDEAEYYCALWYSNLWVFGQGTKLTVL
